Data as given in patent publication US20250262210A1 (TRUSTEES OF COLUMBIA UNIVERSITY IN THE CITY OF NEW YORK, published 2025).
Numbering of substitutions follows the chain as printed.

T1: LZTR1 R810W-FLAG (human, UniProt Q8N653 1-840)
T1 construct: Stably expressed in U87 cells by lentivirus; also called LZTR1-FLAG-R810W; LZTR1 RW; not shown: FLAG tag
T1 sequence (looked up): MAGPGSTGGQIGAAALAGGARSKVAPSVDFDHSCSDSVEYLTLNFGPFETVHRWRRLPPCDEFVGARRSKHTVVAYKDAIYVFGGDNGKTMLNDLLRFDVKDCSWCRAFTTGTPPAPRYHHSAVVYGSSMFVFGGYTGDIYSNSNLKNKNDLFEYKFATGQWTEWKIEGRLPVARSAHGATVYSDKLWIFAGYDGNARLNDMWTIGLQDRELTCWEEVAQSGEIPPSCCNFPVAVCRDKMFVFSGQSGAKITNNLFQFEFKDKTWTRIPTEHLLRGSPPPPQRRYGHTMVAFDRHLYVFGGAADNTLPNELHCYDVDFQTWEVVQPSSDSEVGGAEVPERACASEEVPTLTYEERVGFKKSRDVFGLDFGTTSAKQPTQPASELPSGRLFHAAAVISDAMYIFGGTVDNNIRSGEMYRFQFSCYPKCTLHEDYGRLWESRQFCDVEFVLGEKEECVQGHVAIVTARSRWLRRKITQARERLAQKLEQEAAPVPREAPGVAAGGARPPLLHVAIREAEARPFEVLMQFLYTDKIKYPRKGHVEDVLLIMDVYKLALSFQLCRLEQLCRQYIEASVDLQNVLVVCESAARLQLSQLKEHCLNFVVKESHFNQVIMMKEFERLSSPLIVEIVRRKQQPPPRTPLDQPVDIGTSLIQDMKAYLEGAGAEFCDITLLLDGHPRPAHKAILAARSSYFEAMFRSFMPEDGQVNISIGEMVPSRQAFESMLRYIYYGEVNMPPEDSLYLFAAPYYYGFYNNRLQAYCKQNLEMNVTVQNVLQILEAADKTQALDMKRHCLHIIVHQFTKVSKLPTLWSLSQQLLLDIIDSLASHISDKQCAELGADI

T2: LZTR1-FLAG (human, UniProt Q8N653 1-840)
T2 construct: Expressed in HEK 293T, HeLa or U87 cells; used as cell lysate; also called LZTR1 wild type-FLAG; LZTR1 WT; not shown: FLAG tag at the C-terminus
T2 sequence (looked up): T1 sequence (looked up) with W810R

B1: PPP6C (other, human, UniProt O00743 1-305, looked up)
chain: MAPLDLDKYVEIARLCKYLPENDLKRLCDYVCDLLLEESNVQPVSTPVTVCGDIHGQFYDLCELFRTGGQVPDTNYIFMGDFVDRGYYSLETFTYLLALKAKWPDRITLLRGNHESRQITQVYGFYDECQTKYGNANAWRYCTKVFDMLTVAALIDEQILCVHGGLSPDIKTLDQIRTIERNQEIPHKGAFCDLVWSDPEDVDTWAISPRGAGWLFGAKVTNEFVHINNLKLICRAHQLVHEGYKFMFDEKLVTVWSAPNYCYRCGNIASIMVFKDVNTREPKLFRAVPDSERVIPPRTTTPYFL
B2: RANBP9 (other, human, UniProt Q96S59 1-729, looked up)
chain: MSGQPPPPPPQQQQQQQQLSPPPPAALAPVSGVVLPAPPAVSAGSSPAGSPGGGAGGEGLGAAAAALLLHPPPPPPPATAAPPPPPPPPPPPASAAAPASGPPAPPGLAAGPGPAGGAPTPALVAGSSAAAPFPHGDSALNEQEKELQRRLKRLYPAVDEQETPLPRSWSPKDKFSYIGLSQNNLRVHYKGHGKTPKDAASVRATHPIPAACGIYYFEVKIVSKGRDGYMGIGLSAQGVNMNRLPGWDKHSYGYHGDDGHSFCSSGTGQPYGPTFTTGDVIGCCVNLINNTCFYTKNGHSLGIAFTDLPPNLYPTVGLQTPGEVVDANFGQHPFVFDIEDYMREWRTKIQAQIDRFPIGDREGEWQTMIQKMVSSYLVHHGYCATAEAFARSTDQTVLEELASIKNRQRIQKLVLAGRMGEAIETTQQLYPSLLERNPNLLFTLKVRQFIEMVNGTDSEVRCLGGRSPKSQDSYPVSPRPFSSPSMSPSHGMNIHNLASGKGSTAHFSGFESCSNGVISNKAHQSYCHSNKHQSSNLNVPELNSINMSRSQQVNNFTSNDVDMETDHYSNGVGETSSNGFLNGSSKHDHEMEDCDTEMEVDSSQLRRQLCGGSQAAIERMIHFGRELQAMSEQLRRDCGKNTANKKMLKDAFSLLAYSDPWNSPVGNQLDPIQREPVCSALNSAILETHNLPKQPPLALAMGQATQCLGLMARSGIGSCAFATVEDYLH
B3: RETSAT (other, human, UniProt Q6NUM9 19-610, looked up)
chain: KVYLGLFSGSSPNPFSEDVKRPPAPLVTDKEARKKVLKQAFSANQVPEKLDVVVIGSGFGGLAAAAILAKAGKRVLVLEQHTKAGGCCHTFGKNGLEFDTGIHYIGRMEEGSIGRFILDQITEGQLDWAPLSSPFDIMVLEGPNGRKEYPMYSGEKAYIQGLKEKFPQEEAIIDKYIKLVKVVSSGAPHAILLKFLPLPVVQLLDRCGLLTRFSPFLQASTQSLAEVLQQLGASSELQAVLSYIFPTYGVTPNHSAFSMHALLVNHYMKGGFYPRGGSSEIAFHTIPVIQRAGGAVLTKATVQSVLLDSAGKACGVSVKKGHELVNIYCPIVVSNAGLFNTYEHLLPGNARCLPGVKQQLGTVRPGLGMTSVFICLRGTKEDLHLPSTNYYVYYDTDMDQAMERYVSMPREEAAEHIPLLFFAFPSAKDPTWEDRFPGRSTMIMLIPTAYEWFEEWQAELKGKRGSDYETFKNSFVEASMSVVLKLFPQLEGKVESVTAGSPLTNQFYLAAPRGACYGADHDLGRLHPCVMASLRAQSPIPNLYLTGQDIFTCGLVGALQGALLCSSAILKRNLYSDLKNLDSRIRAQKKKN
B4: RASA3 (other, human, UniProt Q14644 2-834, looked up)
chain: AVEDEGLRVFQSVKIKIGEAKNLPSYPGPSKMRDCYCTVNLDQEEVFRTKIVEKSLCPFYGEDFYCEIPRSFRHLSFYIFDRDVFRRDSIIGKVAIQKEDLQKYHNRDTWFQLQHVDADSEVQGKVHLELRLSEVITDTGVVCHKLATRIVECQGLPIVNGQCDPYATVTLAGPFRSEAKKTKVKRKTNNPQFDEVFYFEVTRPCSYSKKSHFDFEEEDVDKLEIRVDLWNASNLKFGDEFLGELRIPLKVLRQSSSYEAWYFLQPRDNGSKSLKPDDLGSLRLNVVYTEDHVFSSDYYSPLRDLLLKSADVEPVSASAAHILGEVCREKQEAAVPLVRLFLHYGRVVPFISAIASAEVKRTQDPNTIFRGNSLASKCIDETMKLAGMHYLHVTLKPAIEEICQSHKPCEIDPVKLKDGENLENNMENLRQYVDRVFHAITESGVSCPTVMCDIFFSLREAAAKRFQDDPDVRYTAVSSFIFLRFFAPAILSPNLFQLTPHHTDPQTSRTLTLISKTVQTLGSLSKSKSASFKESYMATFYEFFNEQKYADAVKNFLDLISSSGRRDPKSVEQPIVLKEGFMIKRAQGRKRFGMKNFKKRWFRLTNHEFTYHKSKGDQPLYSIPIENILAVEKLEEESFKMKNMFQVIQPERALYIQANNCVEAKDWIDILTKVSQCNQKRLTVYHPSAYLSGHWLCCRAPSDSAPGCSPCTGGLPANIQLDIDGDRETERIYSLFNLYMSKLEKMQEACGSKSVYDGPEQEEYSTFVIDDPQETYKTLKQVIAGVGALEQEHAQYKRDKFKKTKYGSQEHPIGDKSFQNYIRQQSETSTHSI
B5: RAP1GDS1 (other, human, UniProt P52306 1-607, looked up)
chain: MDNLSDTLKKLKITAVDKTEDSLEGCLDCLLQALAQNNTETSEKIQASGILQLFASLLTPQSSCKAKVANIIAEVAKNEFMRIPCVDAGLISPLVQLLNSKDQEVLLQTGRALGNICYDSHEGRSAVDQAGGAQIVIDHLRSLCSITDPANEKLLTVFCGMLMNYSNENDSLQAQLINMGVIPTLVKLLGIHCQNAALTEMCLVAFGNLAELESSKEQFASTNIAEELVKLFKKQIEHDKREMIFEVLAPLAENDAIKLQLVEAGLVECLLEIVQQKVDSDKEDDITELKTGSDLMVLLLLGDESMQKLFEGGKGSVFQRVLSWIPSNNHQLQLAGALAIANFARNDANCIHMVDNGIVEKLMDLLDRHVEDGNVTVQHAALSALRNLAIPVINKAKMLSAGVTEAVLKFLKSEMPPVQFKLLGTLRMLIDAQAEAAEQLGKNVKLVERLVEWCEAKDHAGVMGESNRLLSALIRHSKSKDVIKTIVQSGGIKHLVTMATSEHVIMQNEALVALALIAALELGTAEKDLESAKLVQILHRLLADERSAPEIKYNSMVLICALMGSECLHKEVQDLAFLDVVSKLRSHENKSVAQQASLTEQRLTVES
B6: RABGEF1 (other, human, UniProt Q9UJ41 1-491, looked up)
chain: MSLKSERRGIHVDQSDLLCKKGCGYYGNPAWQGFCSKCWREEYHKARQKQIQEDWELAERLQREEEEAFASSQSSQGAQSLTFSKFEEKKTNEKTRKVTTVKKFFSASSRVGSKKEIQEAKAPSPSINRQTSIETDRVSKEFIEFLKTFHKTGQEIYKQTKLFLEGMHYKRDLSIEEQSECAQDFYHNVAERMQTRGKVPPERVEKIMDQIEKYIMTRLYKYVFCPETTDDEKKDLAIQKRIRALRWVTPQMLCVPVNEDIPEVSDMVVKAITDIIEMDSKRVPRDKLACITKCSKHIFNAIKITKNEPASADDFLPTLIYIVLKGNPPRLQSNIQYITRFCNPSRLMTGEDGYYFTNLCCAVAFIEKLDAQSLNLSQEDFDRYMSGQTSPRKQEAESWSPDACLGVKQMYKNLDLLSQLNERQERIMNEAKKLEKDLIDWTDGIAREVQDIVEKYPLEIKPPNQPLAAIDSENVENDKLPPPLQPQVYAG
B7: PTOV1 (other, human, UniProt Q86YD1 1-416, looked up)
chain: MVRPRRAPYRSGAGGPLGGRGRPPRPLVVRAVRSRSWPASPRGPQPPRIRARSAPPMEGARVFGALGPIGPSSPGLTLGGLAVSEHRLSNKLLAWSGVLEWQEKRRPYSDSTAKLKRTLPCQAYVNQGENLETDQWPQKLIMQLIPQQLLTTLGPLFRNSQLAQFHFTNRDCDSLKGLCRIMGNGFAGCMLFPHISPCEVRVLMLLYSSKKKIFMGLIPYDQSGFVSAIRQVITTRKQAVGPGGVNSGPVQIVNNKFLAWSGVMEWQEPRPEPNSRSKRWLPSHVYVNQGEILRTEQWPRKLYMQLIPQQLLTTLVPLFRNSRLVQFHFTKDLETLKSLCRIMDNGFAGCVHFSYKASCEIRVLMLLYSSEKKIFIGLIPHDQGNFVNGIRRVIANQQQVLQRNLEQEQQQRGMGG

What follows are binders tested against T1, LZTR1 R810W-FLAG (assay: IP/MS, LZTR1 R810W-FLAG, U87).
Procedure, shortened: (§1)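 Read-out: spectral counts from LC-MS/MS (Orbitrap Fusion) after MaxQuant identification. Variable modifications were Met oxidation, protein N-terminal acetylation and N/Q deamidation.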

Row | binding result | Binder
1 | binds | B1
2 | binds | B2
3 | binds | B3
4 | binds | B4
5 | binds | B5
6 | binds | B6
7 | binds | B7

Each binder was assayed against T2, LZTR1-FLAG (assay: IP/MS, LZTR1 wild type-FLAG, U87).
Procedure, shortened: as §1

Row | binding result | Binder
8 | binds | B1
9 | binds | B2
10 | binds | B3
11 | binds | B4
12 | binds | B5
13 | binds | B6
14 | binds | B7
